Source: US20220153793A1 (SINAI HEALTH SYSTEM, published 2022)

B1: mCherry-LacR-TOPBP1 3A (other)
chain: MSRNDKEPFFVKFLKSSDNSKCFFKALESIKEFQSEEYLQIITEEEALKIKENDRSLYICDPFSGVVFDHLKKLGCRIVGPQVVIFCMHHQRCVPRAEHPVYNMVMSDVTISCTSLEKEKREEVHKYVQMMGGRVYRDLNVSVTHLIAGEVGSKKYLVAANLKKPILLPSWIKTLWEKSQEKKITRYTDINMEDFKCPIFLGCIICVTGLCGLDRKEVQQLTVKHGGQYMGQLKMNECTHLIVQEPKGQKYECAKRWNVHCVTTQWFFDSIEKGFCQDESIYKTEPRPEAKTMPNSSTPTSQINTIDSRTLSDVSNISNINASCVSESICNSLNSKLEPTLENLENLDVSAFQAPEDLLDGCRIYLCGFSGRKLDKLRRLINSGGGVRFNQLNEDVTHVIVGDYDDELKQFWNKSAHRPHVVGAKWLLECFSKGYMLSEEPYIHANYQPVEIPVSHKPESKAALLKKKNSSFSKKDFAPSEKHEQADEDLLSQYENGSSTVVEAKTSEARPFNDSTHAEPLNDSTHISLQEENQSSVSHCVPDVSTITEEGLFSQKSFLVLGFSNENESNIANIIKENAGKIMSLLSRTVADYAVVPLLGCEVEATVGEVVTNTWLVTCIDYQTLFDPKSNPLFTPVPVMTGMTPLEDCVISFSQCAGAEKESLTFLANLLGASVQEYFVRKSNAKKGMFASTHLILKERGGSKYEAAKKWNLPAVTIAWLLETARTGKRADESHFLIENSTKEERSLETEITNGINLNSDTAEHPGTRLQTHRKTVVTPLDMNRFQSKAFRAVVSQHARQVAASPAVGQPLQKEPSLHLDTPSKFLSKDKLFKPSAAAKDALAALETPGRPSQQKRKPSTPLSEVIVKNLQLALANSSRNAVALSASPQLKEAQSEKEEAPKPLHKVVVCVSKKLSKKQSELNGIAASLGADYRWSFDETVTHFIYQGRPNDTNREYKSVKERGVHIVSEHWLLDCAQECKHLPESLYPHTYNPKMSLDISAVQDGRLCNSRLLSAVSSTKDDEPDPLILEENDVDNMATNNKESAPSNGSGKNDSKGVLTQTLEMRENFQKQLQEIMSATSIVKPQGQRTSLSRSGCNSASSTPDSTRSARSGRSRVLEALRQSRQTVPDVNTEPSQNEQIIWDDPTAREERARLASNLQWPSCPTQYSELQVDIQNLEDSPFQKPLHDSEIAKQAVCDPGNIRVTEAPKHPISEELETPIKDSHLIPTPQAPSIAFPLANPPVAPHPREKIITIEETHEELKKQYIFQLSSLNPQERIDYCHLIEKLGGLVIEKQCFDPTCTHIVVGHPLRNEKYLASVAAGKWVLHRSYLEACRTAGHFVQEEDYEWGSSSILDVLTGINVQQRRLALAAMRWRKKIQQRQESGIVEGAFSGWKVILHVDQSREAGFKRLLQSGGAKVLPGHSVPLFKEATHLFSDLNKLKPDDSGVNIAEAAAQNVYCLRTEYIADYLMQESPPHVENYCLPEAISFIQNNKELGTGLSQKRKAPTEKNKIKRPRVH
notes: also called Flag-LacR-TOPBP1^3A; not shown: The mCherry-LacR carrier (Flag-LacR in the legend and methods) and its linker
B2: MBP-TOPBP1756-999-3A (other, not shown: large carriers)
chain: LNSDTAEHPGTRLQTHRKTVVTPLDMNRFQSKAFRAVVSQHARQVAASPAVGQPLQKEPSLHLDTPSKFLSKDKLFKPSAAAKDALAALETPGRPSQQKRKPSTPLSEVIVKNLQLALANSSRNAVALSASPQLKEAQSEKEEAPKPLHKVVVCVSKKLSKKQSELNGIAASLGADYRWSFDETVTHFIYQGRPNDTNREYKSVKERGVHIVSEHWLLDCAQECKHLPESLYPHTYNPKMSLDI

How the values were obtained:
[1] = biological target: CIP2A (endogenous) (human, UniProt Q8TCG1 1-905); experiment: LacR/LacO assay in U2OS lacO256 cells, endogenous CIP2A at the lacO array
Procedure: 1.8×10⁵ cells were seeded in 6-well plates containing glass coverslips. […] Cells were fixed with 4% PFA 48 h after transfection and stained for immunofluorescence. […] After 0.1 mg/mL nourseothricin selection and cell expansion, 2×10⁵ cells were seeded in 6-well plates. […] 24 h later, cells were seeded in a 96-well plate (˜20,000 cells per well), cultured for 24 h and fixed with 2% PFA and stained for immunofluorescence. Images were acquired on an IN Cell Analyzer 6000 automated microscope (GE Life Sciences) with a 60× objective.

[2] = biological target: T1, GST-CIP2A (1-560) (human, UniProt Q8TCG1 1-560); experiment: GST pull-down with bacterially produced proteins on glutathione resin, immunoblot anti-MBP
T1 construct: Expressed in Escherichia coli and coupled to glutathione sepharose 4B; not shown: Glutathione S-transferase tag of vector pGEX4T1
Procedure: MBP and GST proteins expressed in Escherichia coli were purified on amylose (New England Biolabs) or glutathione sepharose 4B (GE Healthcare) resins according to the batch method described by the manufacturer and stored in 20 mM Tris-HCl pH 8.0, 150 mM NaCl, 1 mM DTT, 5% glycerol. […] Beads were extensively washed prior to analysis by immunoblotting.

Row | Binder | binding result [1] | binding result [2]
1 | B1 | no binding | 
2 | B2 |  | no binding
